Where a chain is given by its changes, count along the chain named. In names and notes the source's numbering stands.
B1: CSN6^ΔC (human CSN6 31–211 fragment) (domain or fragment, UniProt Q7L5N1 31-211, looked up)
chain: MACGVTGSVSVALHPLVILNISDHWIRMRSQEGRPVQVIGALIGKQEGRNIEVMNSFELLSHTVEEKIIIDKEYYYTKEEQFKQVFKELEFLGWYTTGGPPDPSDIHVHKQVCEIIESPLFLKLNPMTKHTDLPVSVFESVIDIINGEATMLFAELTYTLATEEAERIGVDHVARMTATGS
notes: COP9 signalosome subunit 6 (CSN6), human, residues 31-211 (MPN domain with a C-terminal extension); Cloned in pGEX-6P1; Uniformly 15N-labelled for NMR; also called CSN6 N-terminal domain; CSN6 MPN domain; source: LB or 15NH4Cl M9 medium for NMR; not shown: GST, N-terminal, cleaved
B2: CSN6^ΔC,V115E (domain or fragment, human, UniProt Q7L5N1 31-211, looked up)
chain: B1 chain with V85E
notes: COP9 signalosome subunit 6 (CSN6), human, residues 31-211, V115E; everywhere else V115E; also called V115E variant; not shown: GST, N-terminal, cleaved

Tests used:
[1] = biological target: the molecule itself; assay: crystal structure; CSN6^ΔC alone; crystals at 18°C in 0.2 M tri-sodium citrate, 0.1 M Bis-Tris propane pH 6.5, 20% PEG3350; dimer generated by the crystallographic 2-fold
[2] = biological target: T1, CSN5^ΔC,WT (human CSN5 1–257 fragment) (human, UniProt Q92905 1-257); assay: ITC; CSN6^ΔC (WT and variants; 1 mM, 30 injections of 1.8 µL) injected into CSN5^ΔC (WT and variants; 100 µM) in the cell; 20°C; 20 mM Na MES pH 6.5, 75 mM NaCl; one site model; apparent; settings: both partners purified
T1 construct: COP9 signalosome subunit 5 (CSN5, Jab1), human, residues 1-257 (MPN domain with N- and C-terminal appendices); also called CSN5 catalytic domain; Jab1 fragment
T1 sequence (Q92905 1-257, stated change not applied): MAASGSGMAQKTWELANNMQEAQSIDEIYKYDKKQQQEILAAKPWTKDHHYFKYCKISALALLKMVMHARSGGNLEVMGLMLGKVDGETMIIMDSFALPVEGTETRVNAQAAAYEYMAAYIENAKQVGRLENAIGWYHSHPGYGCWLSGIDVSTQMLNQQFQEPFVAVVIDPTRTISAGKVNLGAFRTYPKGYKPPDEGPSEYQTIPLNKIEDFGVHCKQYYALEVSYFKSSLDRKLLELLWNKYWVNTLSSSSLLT

CSN5^ΔC,R106T = biological target: T2, CSN5^ΔC,R106T (human, UniProt Q92905 1-257, R106T); assay: as above; settings: both partners purified
T2 construct: COP9 signalosome subunit 5 (CSN5, Jab1), human, residues 1-257, R106T in the Ins-1 region; also called conformationally-relaxed CSN5^ΔC variant; R106T variant
T2 sequence (Q92905 1-257 R106T): as the sequence (Q92905 1-257, stated change not applied) above, with R106T counted along it

Row | Binder | binding result [1] | Kd [2] | binding result (CSN5^ΔC,R106T) | fold reduction in binding against WT CSN6^ΔC [2]
1 | B1 | binds | 6 ± 1 µM | binds | 
2 | B2 |  |  |  | 5 fold
